# Patent publication US20030170230A1 (published 2003)
# Target: tetanus toxoid (UniProt P04958 2-1315)
# Experiment: ELISA
binder,measurement,value
"Sample C: protein from vectors pG31020, pG31030 and pG31027, consisting of FvL-AHECa, FvH-AHECb and ubiquitin-AHECc with a disulfide bridge between AHECa and … (other) VL: MDIVMTQSQKFMSTSVGDRVSVTCKASQNVGASVAWYQQKPGQSPKILIYSASYRYSGVPDRFTGSGSGTDFTLTISNVQSEDLAEYFCQQYNGYPLTFGAGTKLELRTSDSLRLQQLFRDCEDEETWIREKEPIAASTAMDIGINSDPNSSSVDKLAAALEHHHHHH VH: MGSGIEGRMASEVQLQQSGPELVKPGASVKMSCKASGYTFTNYIMYWVTQRPGQGLEWIGYIHPYNDDTKYNEKFKDKATLTSDRSSRTAYMELSSLTSEDSAVYYCARKKANFGYGPWFAYWGQGTLVTVSARTKHQALQAEIAGHEPRIKACTQKGNAMVEESLEHHHHHH not shown",Ka,4.3e+08 M⁻¹
